First the molecules themselves.
B1: POLD4 (parent)
chain: ITDSYPVVKRREGPAGHSKGELAP
B2: ZNF263 (parent)
chain: PEASHLRFRRFRFQEAAGPREALS
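Further: lentivirally expressed fusions sorted by FACS into six bins by GFP to DsRed ratio, PSI derived from sequencing read proportions per bin multiplied by bin number.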

Variants of B1 are the subject of the first series. The experiment in a line: protein stability index of a GFP-peptide fusion (GPS, HEK-293T) (PSI 1-6); higher = more stable. The following applies: c terminus: a fixed tail appended.
Consider IYDSYPVVKRREGPAGHSKGELAP [T2Y], for which the protein stability index is 4.27.
The same measure, in the same setting: to IWDSYPVVKRREGPAGHSKGELAP [T2W] belongs 3.37; to ILDSYPVVKRREGPAGHSKGELAP [T2L], 4.98; to ISDSYPVVKRREGPAGHSKGELAP [T2S], 3.69.
Take IFDSYPVVKRREGPAGHSKGELAP [T2F]: the protein stability index worked out at 4.27.
For IADSYPVVKRREGPAGHSKGELAP [T2A], the protein stability index is 2.43.
Turning to IGDSYPVVKRREGPAGHSKGELAP [T2G], the protein stability index was determined as 3.61.
On to IIDSYPVVKRREGPAGHSKGELAP [T2I], for which the protein stability index amounted to 4.58.
For the variant ITDSYPVVKRREGPAGFSKGELAP [H17F], the protein stability index was 3.01.
On to ITDSYPVVKRREGPAGQSKGELAP [H17Q], for which the protein stability index came to 3.51.
On to ITDSYPVVKRREGPAGNSKGELAP [H17N], for which the protein stability index came out at 3.54.
For ITDSYPVVKRREGPAGTSKGELAP [H17T], the protein stability index was 3.91.
In the case of ITDSYPVVKRREGPAGPSKGELAP [H17P], the protein stability index worked out at 2.5.
Turning to ITDSYPVVKRREGPAGRSKGELAP [H17R], the protein stability index is 3.35.
Still for that read-out and setting: to ITDSYPSVKRREGPAGHSKGELAP [V7S] belongs 4.76; to ITDSYPNVKRREGPAGHSKGELAP [V7N], 4.2.
For the variant ITDSYPPVKRREGPAGHSKGELAP [V7P], the protein stability index came out at 5.22.
Turning to ITDSYPYVKRREGPAGHSKGELAP [V7Y], the protein stability index came to 4.14.
The same measure, in the same setting: the result for ITDSYPQVKRREGPAGHSKGELAP [V7Q] reads 3.79; that for ITDSYPKVKRREGPAGHSKGELAP [V7K], 3.56.
With ITDSYPIVKRREGPAGHSKGELAP [V7I], the protein stability index is 3.42.
For the variant ITDSYPLVKRREGPAGHSKGELAP [V7L], the protein stability index worked out at 3.44.
Consider ITDSYPHVKRREGPAGHSKGELAP [V7H], for which the protein stability index was determined as 4.4.
For the variant ITDSYPVVKRREHPAGHSKGELAP [G13H], the protein stability index came to 3.24.
Same read-out and setting: to ITDSYPVVKRRENPAGHSKGELAP [G13N] belongs 2.78.
Regarding ITDSYPVVKRRESPAGHSKGELAP [G13S], the protein stability index is 3.22.
For the variant ITDSYPVVKRREWPAGHSKGELAP [G13W], the protein stability index came to 2.5.
With ITDSYPVVKRREVPAGHSKGELAP [G13V], the protein stability index was 2.62.
ITDSYPVVKRREAPAGHSKGELAP [G13A]: the protein stability index amounted to 2.92.
Still for that read-out and setting: the result for ITDSYPVVKRREPPAGHSKGELAP [G13P] reads 4.43; that for ITDSYPVVKRREGPAGHSKGEFAP [L22F], 3.27.
On the same count and under the same terms, to ITDSYPVVKRREGPAGHSKGEQAP [L22Q] belongs 3.89.
Consider ITDSYPVVKRREGPAGHSKGERAP [L22R], for which the protein stability index came out at 2.57.
On the same count and under the same terms, to ITDSYPVVKRREGPAGHSKGENAP [L22N] belongs 3.31; to ITDSYPVVKRREGPAGHSKGEGAP [L22G], 2.91.
ITDSYPVVKRREGPAGHSKGEPAP [L22P]: the protein stability index is 3.31.
Take ITDSYPVVKRREGPAGHSKGEYAP [L22Y]: the protein stability index was 2.52.
In the case of ITDSYPVVKRREGPAGHSKGEAAP [L22A], the protein stability index was found to be 3.62.
ITDSYPVVKRREGPAGHSKGEMAP [L22M]: the protein stability index is 3.21.
For the variant ITDSYPVVKRRSGPAGHSKGELAP [E12S], the protein stability index amounted to 2.69.
Same read-out and setting: the result for ITDSYPVVKRRPGPAGHSKGELAP [E12P] reads 3.26; that for ITDSYPVVKRRFGPAGHSKGELAP [E12F], 1.86.
On to ITDSYPVVKRRGGPAGHSKGELAP [E12G], for which the protein stability index was determined as 3.01.
With ITDSYPVVKRRQGPAGHSKGELAP [E12Q], the protein stability index was 4.16.
ITDSYPVVKRRLGPAGHSKGELAP [E12L]: the protein stability index was 2.87.
Take ITDSYPVVKRRVGPAGHSKGELAP [E12V]: the protein stability index came out at 2.72.
Take ITDSYPVVKRRDGPAGHSKGELAP [E12D]: the protein stability index stood at 3.08.
With ITDSYPVVKRREGPAGHPKGELAP [S18P], the protein stability index came to 2.84.
With ITDSYPVVKRREGPAGHFKGELAP [S18F], the protein stability index turned out to be 2.91.
Still for that read-out and setting: the result for ITDSYPVVKRREGPAGHAKGELAP [S18A] reads 3.01; that for ITDSYPVVKRREGPAGHLKGELAP [S18L], 2.91.
In the case of ITDSYPVVKRREGPAGHIKGELAP [S18I], the protein stability index came to 3.44.
Still for that read-out and setting: the result for ITDSYPVVKRREGPAGHKKGELAP [S18K] reads 3.02; that for ITDSYPVVKRREGPAGHMKGELAP [S18M], 2.68.
Regarding ITDSYPVVKRREGPAGHNKGELAP [S18N], the protein stability index came out at 2.22.
For ITDSYPVVKRREGPAGHSKGELVP [A23V], the protein stability index turned out to be 2.8.
Turning to ITDSYPVVKRREGPAGHSKGELFP [A23F], the protein stability index came to 3.27.
For ITDSYPVVKRREGPAGHSKGELHP [A23H], the protein stability index turned out to be 3.
As for ITDSYPVVKRREGPAGHSKGELYP [A23Y], the protein stability index stood at 3.21.
On to ITDSYPVVKRREGPAGHSKGELIP [A23I], for which the protein stability index worked out at 3.24.
On to ITDSYPVVKRREGPAGHSKGELNP [A23N], for which the protein stability index was determined as 3.05.

The variants in the next series derive from B2. The description is as above. The conditions noted are these: c terminus: a fixed tail appended.
Turning to PVASHLRFRRFRFQEAAGPREALS [E2V], the protein stability index came out at 2.12.
In the case of PTASHLRFRRFRFQEAAGPREALS [E2T], the protein stability index was determined as 2.4.
Same read-out and setting: to PEASHLRFRRFRFQEYAGPREALS [A16Y] belongs 2.1.
With PEASHLRFRRFRFQECAGPREALS [A16C], the protein stability index was 2.19.
Take PEASHLRFSRFRFQEAAGPREALS [R9S]: the protein stability index turned out to be 3.8.
On the same count and under the same terms, the result for PEASHLRFIRFRFQEAAGPREALS [R9I] reads 1.69.
On to PEAVHLRFRRFRFQEAAGPREALS [S4V], for which the protein stability index turned out to be 1.93.
The same measure, in the same setting: the result for PEAPHLRFRRFRFQEAAGPREALS [S4P] reads 3.78; that for PEAFHLRFRRFRFQEAAGPREALS [S4F], 1.87.
Consider PEASHYRFRRFRFQEAAGPREALS [L6Y], for which the protein stability index stood at 1.66.
For the variant PEASHRRFRRFRFQEAAGPREALS [L6R], the protein stability index was found to be 3.06.
PEISHLRFRRFRFQEAAGPREALS [A3I]: the protein stability index was 2.52.
Regarding PEPSHLRFRRFRFQEAAGPREALS [A3P], the protein stability index was 2.87.
On to GEASHLRFRRFRFQEAAGPREALS [P1G], for which the protein stability index is 2.8.
Still for that read-out and setting: the result for MEASHLRFRRFRFQEAAGPREALS [P1M] reads 2.73; that for PEASHLRFRRFRFQEAAGPRFALS [E21F], 2.34; that for PEASHLRFRRFRKQEAAGPREALS [F13K], 4.07.
PEASHLRFRRFRFQEAAGAREALS [P19A]: the protein stability index is 2.71.
The same measure, in the same setting: the result for PEASHLRFRRFRFQEAAGPREQLS [A22Q] reads 2.78; that for PEASHLRFRRFRFQEAAGPRENLS [A22N], 2.87; that for PEASHLRFRRFRFQEAYGPREALS [A17Y], 2.04.
PEASHLRFRRFRFQEAKGPREALS [A17K]: the protein stability index worked out at 2.94.
Consider PEASHLRFRRFRFQEAHGPREALS [A17H], for which the protein stability index turned out to be 2.33.
As to PEASHLRFRRFRFQEAAGPREACS [L23C], the protein stability index amounted to 2.7.
Same read-out and setting: to PEASHLRCRRFRFQEAAGPREALS [F8C] belongs 2.69; to PEASHLRVRRFRFQEAAGPREALS [F8V], 3.06; to PEASHLRNRRFRFQEAAGPREALS [F8N], 3.46.
As to PEASGLRFRRFRFQEAAGPREALS [H5G], the protein stability index came to 2.44.
In the case of PEASYLRFRRFRFQEAAGPREALS [H5Y], the protein stability index is 1.95.
On to PEASLLRFRRFRFQEAAGPREALS [H5L], for which the protein stability index is 2.74.
Same read-out and setting: to PEASHLDFRRFRFQEAAGPREALS [R7D] belongs 2.78.
The same measure, in the same setting: to PEASHLRFRRFRFQEAAGPREALN [S24N] belongs 3.28.
Same read-out and setting: to PEASHLRFRRIRFQEAAGPREALS [F11I] belongs 3.1.

The values are drawn from the supplement of paper PMC10567573.
